Source: US20140140975A1

Experiments:
recombinant human GRX1 = recombinant human GRX1 (UniProt P35754)
[1] = target: Fas death receptor (mouse) (UniProt P25446); experiment: cell-based or functional assay
UniProt P25446, sequence (P25446 22-327): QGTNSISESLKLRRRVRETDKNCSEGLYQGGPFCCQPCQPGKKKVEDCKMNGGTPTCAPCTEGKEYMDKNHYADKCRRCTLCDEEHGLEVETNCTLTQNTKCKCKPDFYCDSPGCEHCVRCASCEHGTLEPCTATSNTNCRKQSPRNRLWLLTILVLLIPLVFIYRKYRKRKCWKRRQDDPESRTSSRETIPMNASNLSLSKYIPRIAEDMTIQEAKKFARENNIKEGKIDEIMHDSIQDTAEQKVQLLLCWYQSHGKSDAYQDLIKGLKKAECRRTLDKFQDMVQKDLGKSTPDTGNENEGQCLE

UniProt P35754, sequence (P35754 whole entry): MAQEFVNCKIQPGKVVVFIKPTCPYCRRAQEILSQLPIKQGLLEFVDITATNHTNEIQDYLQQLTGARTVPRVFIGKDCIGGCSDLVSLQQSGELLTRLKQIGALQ

Row | Substance | cleavage of GRX1 (Western Blotting) (recombinant human GRX1) | catalytic activity of GRX1 in lung epithelial cells [1] [% decrease]
1 | recombinant Caspase 3 | Treatment of recombinant human GRX1 with recombinant Caspase 8 or 3 results in cleavage of GRX1 | 
2 | Fas Ligand |  | 50
3 | recombinant Caspase 8 | Treatment of recombinant human GRX1 with recombinant Caspase 8 or 3 results in cleavage of GRX1 | 
